From the Human Domainome abundance scans (Beltran et al. 2025)

B1: SWI/SNF complex subunit SMARCC1, residues 620 to 663; numbered along this chain, Q92922 (parent)
chain: GREWTEQETLLLLEALEMYKDDWNKVSEHVGSRTQDECILHFLR

Variants of: B1
Assay: abundance fitness (aPCA) (normalised: wild type 0, dead -1); higher = more abundant; growth selection in yeast, the domain comes from the species named
Conditions: Homo sapiens

Abundance fitness of substitutions, site by site:
V30: Q -0.764, G -0.792, S -0.757, P -0.635, N -0.79, H -1.1, M -0.019, C -0.277, L -0.131, A -0.97, E -1.18, T -0.419, Y -1.05, R -0.847
R33: Q -1.01, C -0.944, V -0.387, S -0.678, A -0.285, M -0.585, H -0.251, Y -0.744, N -0.884, I -0.885, L -0.832, P -0.653, K 0.037, W -0.404, T -0.464, G -0.569, E -0.319
G31: L -0.528, F -0.375, C -0.009, Q -0.518, V -0.028, I -0.174, M -0.059, W -0.543, P -0.11, E 0.032, D -0.205, K 0.073, N -0.259, Y -0.487, A -0.03
N24: D 0.024, C -0.001, H 0.006, E 0.042, Q 0.173, S 0.119, T -0.029, L 0.013, P 0.045, W -0.168, R -0.032, I -0.13, G 0.075, K 0.155, M 0.065, A 0.027, Y -0.097
D22: C -0.122, S 0.04, G -0.419, E -0.017, H -0.264, L -0.44, Y -0.714, I -0.733, V -0.526, T -0.581, A -0.447, Q -0.112
S32: T 0.203, P -0.419, W -0.622, K 0.05, M -0.083, C -0.124, Q 0.032, E 0.105, A -0.015, L -0.224, H -0.138, N 0.025, I -0.135, G 0.115, Y -0.182, R -0.176, V -0.191
S27: P -0.319, H 0.063, Q 0.246, F -0.516, N -0.204, M -0.248, G 0.056, E 0.105, Y -0.305, I -0.149, W -0.56, L -0.375, D -0.558, A 0.168, C -0.119, V 0.039, K 0.145, R 0.01
A15: Q -0.72, V -0.886, R -0.82, Y -0.746, S -0.043
K25: I -0.426, S -0.011, Q -0.122, M 0.194, D -0.331, Y -0.473, R 0.072, A 0.091, T -0.129, W -0.562, G -0.038, C -0.064, E -0.14, L 0.072, P -0.377, H -0.045, N -0.245
K20: G -0.188, T -0.14, N -0.105, I -0.019, D -0.062, F -0.226, C -0.375, L -0.618, Q -0.278, R -0.234, V -0.123, H 0.021, W -0.737, M -0.118, S -0.2, A -0.139, E -0.085, P 0.058
E17: A -0.087, R -0.007, G -0.213, K 0.139, Q -0.033, D 0.054, H -0.357, C -0.763, V -0.503, S -0.308, T -0.175, F -0.548, W -0.716, M -0.722, I -0.553
L16: H 0.303, P -0.77, G -0.05, N 0.136, F -0.231, E 0.274, Q 0.428, D -0.237, T 0.316, Y 0.334, W 0.024, A 0.16, R 0.469, S 0.094, V 0.224, M 0.235, C 0.197, I 0.079
W23: E -0.577, N -0.579, D -0.374, A -0.712, P -0.535, V -0.783, H -0.696, C -0.48, M -0.32, L -0.528, G -0.631, I -0.255, K -0.503, T -0.786, F -0.186
E28: K -0.269, Q -0.181, M -0.8, W 0.08, I -0.16, T -0.084, V -0.311, H -0.723, R -0.013, D 0.373, G -0.112, N -0.21, C -0.2, Y -0.404, A -0.434, L -0.31
D21: H 0.102, Q 0.067, I -0.601, G -0.046, W -0.578, M -0.363, S -0.078, N 0.227, R 0.268, A -0.066, E 0.225, T -0.17, V -0.419, P 0.019, K 0.294
H29: E -0.551, S -0.344, L -0.264, G -0.803, Q -0.11, F -0.201, M -0.209, C -0.382, N -0.173, R -0.153, Y -0.014, T -0.419, V -0.349, I -0.469, P -0.796
D36: G 0.039, L -0.383, H -0.092, E -0.002, A -0.034, M -0.375, C -0.126, I -0.342, F -0.327
T34: V -0.119, W -0.416, E 0.314, Q 0.199, D -0.036, P -0.222, K 0.165, L -0.257, Y -0.715, N 0.075, G 0.03, F -0.783, R 0.137, I -0.4
M18: F -0.1, I -0.264, A 0.115, R 0.142, G -0.24, T 0.1, S -0.168, H -0.04, L 0.063, N -0.018, E -0.135, K -0.076, Q 0.056, W -0.2, V -0.002, D -0.097, Y -0.129, P -0.583, C -0.158
Q35: E -0.075, G 0.056, V -0.017, S 0.073, P -0.136, I -0.186, W -0.336, Y -0.166, D 0.05, M -0.061, T 0.044, H 0.012, K 0.261, C 0.079, N 0.063, L -0.077, A -0.038
V26: P -0.919, Q -0.533, L -0.513, Y -0.57, A 0.006, I -0.051, T 0.029, D -0.768, N -0.533, R -0.424, G -0.686, C 0.543, H -0.683, E -0.406, W -0.494
Y19: D -0.218, I -0.693, L -0.776, T -0.298, R -0.55, S -0.362, H 0.062, G -0.108, W -0.081, E -0.216, C 0.09, Q -0.423, K -0.263, M -0.62, P -0.952, V -0.69
